In data set [1] the test system is Saccharomyces cerevisiae. As to the kind of experiment: protein stability index of tFT-peptide fusion in deletion strain of DOA10 (PSI (0-1 scale)); higher = more stable (slower turnover). On the procedure:
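MPS profiling in S. cerevisiae of two library types built from selected 12-aa C-degron peptides (IN1, IN2, LN1, LN3, VN2, R1-R5, W1-W3, Atg1 and Rpa12 C-termini): saturation mutagenesis libraries and C-terminal +1 capping libraries (13 aa). Each peptide is fused to the C-terminus of a sfGFP-mCherry timer, after a GGGS linker. Cells are FACS-sorted into 8 mCherry/sfGFP bins and sequenced. PSI runs from 0 (unstable) to 1 (stable), measured once in wild type and in the das1Δ or doa10Δ background.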

Data set [2] deals with Saccharomyces cerevisiae. Kind of data set: protein stability index of tFT-peptide fusion in wild type (PSI (0-1 scale)); higher = more stable (slower turnover). The settings on record: genetic background: wild type.
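Throughout, for protein stability index of tFT-peptide fusion in deletion strain of DOA10: PSI per variant is the weighted mean of its sequencing read distribution over the sorted stability bins, counting only variants with over 10 reads summed across bins.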
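Throughout, for protein stability index of tFT-peptide fusion in wild type: PSI derived as read-weighted mean over the 8 sorting bins, only variants exceeding 10 total reads kept, mCherry placed adjacent to the peptide and sfGFP distal.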

Consider AITLPTCPLLLR, for which the protein stability index in the data set with Saccharomyces cerevisiae [1] came out at 0.681; with Saccharomyces cerevisiae [2], 0.289.
For AITLPYCPLLLR the same measures were 0.666 and 0.18.
In the case of AITLQMCPLLLR, the protein stability index was 0.619 in the data set with Saccharomyces cerevisiae [1] and 0.3 in the data set with Saccharomyces cerevisiae [2].
Take AITLWMCPLLLR: the protein stability index in the data set on Saccharomyces cerevisiae [1] is 0.611; in the data set with Saccharomyces cerevisiae [2] it was 0.267.
Turning to AITSPMCPLLLR, the protein stability index in the data set on Saccharomyces cerevisiae [1] came to 0.672; in the data set with Saccharomyces cerevisiae [2], 0.491.
Regarding AIVLPMCPLLLR, the values for the protein stability index with Saccharomyces cerevisiae [1] and with Saccharomyces cerevisiae [2] were 0.623 and 0.229, respectively.
On to ALYMCSVGCWFR, for which the protein stability index in the data set on Saccharomyces cerevisiae [1] stood at 0.638; in the data set with Saccharomyces cerevisiae [2], 0.351.
On to ANTLPMCPLLLR, for which the protein stability index in the data set on Saccharomyces cerevisiae [1] amounted to 0.649; in the data set with Saccharomyces cerevisiae [2], 0.442.
As for CEVSLPILLFFR, the protein stability index in the data set on Saccharomyces cerevisiae [1] is 0.635; in the data set with Saccharomyces cerevisiae [2] it was 0.066.
In the case of CLPSLPILLFFR, the protein stability index in the data set with Saccharomyces cerevisiae [1] was 0.632; in the data set with Saccharomyces cerevisiae [2], 0.0469.
On to CLTSLPILLFFR, for which the protein stability index in the data set on Saccharomyces cerevisiae [1] is 0.636; in the data set on Saccharomyces cerevisiae [2] it was 0.0745.
As for CLVFLPILLFFR, the protein stability index turned out to be 0.416 in the data set on Saccharomyces cerevisiae [1] and 0.0802 in the data set on Saccharomyces cerevisiae [2].
CLVKLPILLFFR: the protein stability index was found to be 0.6 with Saccharomyces cerevisiae [1] and 0.06 in the data set with Saccharomyces cerevisiae [2].
On the same counts, the results for CLVSFPILLFFR are 0.583 and 0.0594.
Regarding CLVSLMILLFFR, the protein stability index with Saccharomyces cerevisiae [1] worked out at 0.398; in the data set on Saccharomyces cerevisiae [2], 0.256.
CLVSLPELLFFR: the protein stability index with Saccharomyces cerevisiae [1] was 0.692; in the data set with Saccharomyces cerevisiae [2], 0.176.
For CLVSLPIHLFFR, the protein stability index in the data set with Saccharomyces cerevisiae [1] turned out to be 0.669; in the data set on Saccharomyces cerevisiae [2] it was 0.0666.
Turning to CLVSLPILFFFR, the protein stability index with Saccharomyces cerevisiae [1] turned out to be 0.59; in the data set with Saccharomyces cerevisiae [2] it was 0.499.
Turning to CLVSLPILHFFR, the protein stability index in the data set with Saccharomyces cerevisiae [1] worked out at 0.667; in the data set on Saccharomyces cerevisiae [2] it was 0.628.
For CLVSLPILLFCR the same measures were 0.25 and 0.0631.
For CLVSLPILLFFM the same measures were 0.479 and 0.299.
Take CLVSLPILLHFR: the protein stability index in the data set with Saccharomyces cerevisiae [1] is 0.655; in the data set on Saccharomyces cerevisiae [2], 0.286.
As for CLVSLPILLKFR, the figures for the protein stability index with Saccharomyces cerevisiae [1] and with Saccharomyces cerevisiae [2] were 0.652 and 0.178, respectively.
CLVSLPILLSFR: the values for the protein stability index with Saccharomyces cerevisiae [1] and with Saccharomyces cerevisiae [2] were 0.631 and 0.187, respectively.
Take CLVSLPILLVFR: the protein stability index in the data set with Saccharomyces cerevisiae [1] is 0.527; in the data set on Saccharomyces cerevisiae [2] it was 0.0722.
Consider CLVSLPILPFFR, for which the protein stability index in the data set on Saccharomyces cerevisiae [1] was determined as 0.679; in the data set with Saccharomyces cerevisiae [2] it was 0.0842.
On to CLVSLPILVFFR, for which the protein stability index was 0.512 with Saccharomyces cerevisiae [1] and 0.0876 with Saccharomyces cerevisiae [2].
As to CLVSLPILWFFR, the protein stability index was 0.61 in the data set on Saccharomyces cerevisiae [1] and 0.566 in the data set on Saccharomyces cerevisiae [2].
On the same counts, the results for CLVSLPIMLFFR are 0.607 and 0.0325.
For CLVSLPIPLFFR the same measures were 0.643 and 0.0774.
For the sequence CLVSLPIVLFFR, the protein stability index with Saccharomyces cerevisiae [1] was determined as 0.581; with Saccharomyces cerevisiae [2], 0.0839.
For CLVSLPKLLFFR the same measures were 0.662 and 0.0835.
With CLVSLPSLLFFR, the protein stability index with Saccharomyces cerevisiae [1] turned out to be 0.667; in the data set on Saccharomyces cerevisiae [2] it was 0.0935.
As to CLVSSPILLFFR, the protein stability index with Saccharomyces cerevisiae [1] was found to be 0.645; in the data set with Saccharomyces cerevisiae [2], 0.272.
Regarding CPVSLPILLFFR, the protein stability index came to 0.602 with Saccharomyces cerevisiae [1] and 0.0943 in the data set with Saccharomyces cerevisiae [2].
As to CSLRVLLPLYFR, the protein stability index was found to be 0.622 with Saccharomyces cerevisiae [1] and 0.0975 with Saccharomyces cerevisiae [2].
On the same counts, the results for DLYMCSVGCWFR are 0.697 and 0.453.
ELVSLPILLFFR: the protein stability index with Saccharomyces cerevisiae [1] came to 0.633; in the data set with Saccharomyces cerevisiae [2], 0.0794.
For FSLRVLLPLYFR the same measures were 0.608 and 0.268.
On to GAYMCSVGCWFR, for which the protein stability index is 0.686 in the data set on Saccharomyces cerevisiae [1] and 0.427 in the data set on Saccharomyces cerevisiae [2].
For the sequence GDYMCSVGCWFR, the protein stability index in the data set with Saccharomyces cerevisiae [1] came to 0.692; with Saccharomyces cerevisiae [2] it was 0.462.
On to GLIMCSVGCWFR, for which the protein stability index in the data set on Saccharomyces cerevisiae [1] was 0.39; with Saccharomyces cerevisiae [2], 0.197.
On to GLLMCSVGCWFR, for which the protein stability index with Saccharomyces cerevisiae [1] worked out at 0.409; in the data set on Saccharomyces cerevisiae [2], 0.22.
For the sequence GLMMCSVGCWFR, the protein stability index in the data set on Saccharomyces cerevisiae [1] is 0.506; in the data set with Saccharomyces cerevisiae [2], 0.237.
For GLPMCSVGCWFR the same measures were 0.699 and 0.267.
For GLWMCSVGCWFR the same measures were 0.54 and 0.315.
In the case of GLYMCAVGCWFR, the protein stability index is 0.54 with Saccharomyces cerevisiae [1] and 0.279 in the data set with Saccharomyces cerevisiae [2].
For GLYMCCVGCWFR the same measures were 0.504 and 0.303.
As to GLYMCSCGCWFR, the protein stability index with Saccharomyces cerevisiae [1] is 0.674; in the data set on Saccharomyces cerevisiae [2] it was 0.46.
As to GLYMCSNGCWFR, the figures for the protein stability index with Saccharomyces cerevisiae [1] and with Saccharomyces cerevisiae [2] were 0.703 and 0.397, respectively.
Turning to GLYMCSPGCWFR, the protein stability index stood at 0.679 with Saccharomyces cerevisiae [1] and 0.246 in the data set on Saccharomyces cerevisiae [2].
In the case of GLYMCSVGAWFR, the protein stability index in the data set with Saccharomyces cerevisiae [1] is 0.667; in the data set on Saccharomyces cerevisiae [2] it was 0.451.
For GLYMCSVGCFFR the same measures were 0.632 and 0.408.
For the sequence GLYMCSVGCIFR, the protein stability index is 0.637 in the data set on Saccharomyces cerevisiae [1] and 0.587 in the data set with Saccharomyces cerevisiae [2].
For the sequence GLYMCSVGCSFR, the protein stability index in the data set on Saccharomyces cerevisiae [1] came to 0.651; in the data set with Saccharomyces cerevisiae [2] it was 0.621.
Regarding GLYMCSVGCTFR, the protein stability index with Saccharomyces cerevisiae [1] was 0.64; in the data set with Saccharomyces cerevisiae [2] it was 0.609.
On the same counts, the results for GLYMCSVGCWDR are 0.665 and 0.627.
For the sequence GLYMCSVGCWFY, the protein stability index in the data set with Saccharomyces cerevisiae [1] is 0.52; with Saccharomyces cerevisiae [2], 0.398.
On the same counts, the results for GLYMCSVICWFR are 0.314 and 0.231.
Take GLYMCSVLCWFR: the protein stability index in the data set with Saccharomyces cerevisiae [1] stood at 0.369; with Saccharomyces cerevisiae [2], 0.274.
On to GLYMCSVSCWFR, for which the protein stability index was 0.446 with Saccharomyces cerevisiae [1] and 0.338 in the data set with Saccharomyces cerevisiae [2].
GLYMISVGCWFR: the protein stability index in the data set with Saccharomyces cerevisiae [1] stood at 0.341; in the data set on Saccharomyces cerevisiae [2] it was 0.17.
Take GLYQCSVGCWFR: the protein stability index was 0.676 with Saccharomyces cerevisiae [1] and 0.434 in the data set with Saccharomyces cerevisiae [2].
For GLYSCSVGCWFR, the protein stability index with Saccharomyces cerevisiae [1] worked out at 0.676; in the data set with Saccharomyces cerevisiae [2], 0.451.
For GLYYCSVGCWFR the same measures were 0.605 and 0.249.
As for GMYMCSVGCWFR, the protein stability index in the data set on Saccharomyces cerevisiae [1] turned out to be 0.713; in the data set on Saccharomyces cerevisiae [2], 0.271.
For GNYMCSVGCWFR the same measures were 0.699 and 0.405.
